Assay results reported in patent publication US12281340B2, “Method of producing N-acyl-amino group-containing compound” (AJINOMOTO CO., INC., priority 2018, dated 2025).

Key:
[1] = Synthesis of N-caprinoyl-amino acid derivative, N-caprinoyl-D-amino acid and N-caprinoyl-peptide using purified acylamino acid synthetase, UPLC-MS detection; assay type: biochemical; set-up: key: +: Detected; −: Not detected; conditions: +ATP
Description: 0.2 mL of a reaction solution containing 50 mM Tris-HCl, 5 mM amino acid derivative or D-amino acid or peptide, 5 mM sodium caprate, 10 mM ATP, 10 mM MgCl2, 1 mM DTT, 50 μg/mL of the purified enzyme, pH 8.0 was incubated at 25° C. for 24 hours. After completion of the reaction, 0.8 mL of the reaction stop solution (1% (v/v) phosphoric acid, 75% (v/v) methanol) was added, and the mixture was filtrated through the filter followed by being subjected to the UPLC-MS analysis to detect a signal of a molecular weight corresponding to an N-caprinoyl-amino acid derivative, an N-caprinoyl-amino acid or an N-caprinoyl-peptide. A condition for the UPLC-MS analysis is as described in Example 2.
As a result of the UPLC-MS analysis, the signal of the molecular weight corresponding to the N-caprinoyl-amino acid derivative, or N-caprinoyl-amino acid, or N-caprinoyl-peptide was confirmed in the reaction solution containing the enzyme in combination with the amino acid derivative or the D-amino acid or the peptide shown in Table 4 below.

[2] = Synthesis of N-caprinoylamino acid using purified acylamino acid synthetase, UPLC-MS detection; assay type: biochemical; set-up: key: +: Detected; −: Not detected; conditions: +ATP
Description: 2.0 mL of a reaction solution containing 50 mM Tris-HCl, 5 mM amino acid, 5 mM sodium caprate, 10 mM ATP, 10 mM MgCl2, 1 mM DTT, 50 μg of the purified enzyme, pH 8.0 was incubated at 25° C. for 24 hours. After completion of the reaction, 0.8 mL of a reaction stop solution (1% (v/v) phosphoric acid, 75% (v/v) methanol) was added, and the mixture was filtrated through a filter followed by being subjected to the UPLC-MS analysis to detect a signal of a molecular weight corresponding to an N-caprinoyl amino acid.
A UPLC-MS analysis condition is as follows.
Apparatus: ACQUITY UPLC (Waters)
• Column: ACQUITY UPLC BEH C18 1.7 2.1×100 mm Column (Waters) • Mobile phase A: 0.1% formic acid • Mobile phase B: acetonitrile Gradient
• Flow rate: 0.6 mL/min • Injection amount: 2 μL • Column temperature: 40° C. • Ionization method: ESI-negative
As a result of the UPLC-MS analysis, the signal of the molecular weight corresponding to the N-caprinoyl amino acid was confirmed in the reaction solution combining the enzyme and the amino acid shown in Table 3 below.

[3] = substrates Carnosine and sodium caprate
[4] = substrates D-Ala and sodium caprate
[5] = substrates D-Asp and sodium caprate
[6] = substrates D-Cys and sodium caprate
[7] = substrates D-Glu and sodium caprate
[8] = substrates D-Ile and sodium caprate
[9] = substrates D-Lys and sodium caprate
[10] = substrates L-Asp-L-Phe and sodium caprate
[11] = substrates L-Gly-L-Gly and sodium caprate
[12] = substrates Sarcosine and sodium caprate
[13] = substrates Taurine and sodium caprate
[14] = substrates GABA and sodium caprate
[15] = substrates Gly and sodium caprate
[16] = substrates L-Ala and sodium caprate
[17] = substrates L-Arg and sodium caprate
[18] = substrates L-Asn and sodium caprate
[19] = substrates L-Asp and sodium caprate
[20] = substrates L-Cys and sodium caprate
[21] = substrates L-Gln and sodium caprate
[22] = substrates L-Glu and sodium caprate
[23] = substrates L-His and sodium caprate
[24] = substrates L-Ile and sodium caprate
[25] = substrates L-Leu and sodium caprate
[26] = substrates L-Lys and sodium caprate
[27] = substrates L-Met and sodium caprate
[28] = substrates L-Phe and sodium caprate
[29] = substrates L-Pro and sodium caprate
[30] = substrates L-Ser and sodium caprate
[31] = substrates L-Thr and sodium caprate
[32] = substrates L-Trp and sodium caprate
[33] = substrates L-Tyr and sodium caprate
[34] = substrates L-Val and sodium caprate
[35] = substrates β-Ala and sodium caprate

Row | Molecule | signal of molecular weight corresponding to N-caprinoyl compound [1, 3] | signal of molecular weight corresponding to N-caprinoyl compound [1, 4] | signal of molecular weight corresponding to N-caprinoyl compound [1, 5] | signal of molecular weight corresponding to N-caprinoyl compound [1, 6] | signal of molecular weight corresponding to N-caprinoyl compound [1, 7] | signal of molecular weight corresponding to N-caprinoyl compound [1, 8] | signal of molecular weight corresponding to N-caprinoyl compound [1, 9] | signal of molecular weight corresponding to N-caprinoyl compound [1, 10] | signal of molecular weight corresponding to N-caprinoyl compound [1, 11] | signal of molecular weight corresponding to N-caprinoyl compound [1, 12] | signal of molecular weight corresponding to N-caprinoyl compound [1, 13] | signal of molecular weight corresponding to N-caprinoyl amino acid [2, 14] | signal of molecular weight corresponding to N-caprinoyl amino acid [2, 15] | signal of molecular weight corresponding to N-caprinoyl amino acid [2, 16] | signal of molecular weight corresponding to N-caprinoyl amino acid [2, 17] | signal of molecular weight corresponding to N-caprinoyl amino acid [2, 18] | signal of molecular weight corresponding to N-caprinoyl amino acid [2, 19] | signal of molecular weight corresponding to N-caprinoyl amino acid [2, 20] | signal of molecular weight corresponding to N-caprinoyl amino acid [2, 21] | signal of molecular weight corresponding to N-caprinoyl amino acid [2, 22] | further results
1 | PaHP: hypothetical protein from Pantoea agglomerans (PaaK protein), His-tagged (protein, His-tag; Pantoea agglomerans, hypothetical protein from Pantoea agglomerans (PaaK protein), His-tagged) MRSYDHQPTFVEQHNRISIISGSTFRDYEHFARSVPISKLVRMHEVEGKQGDDSSANLPSLIGATSGTSGKMKPVRIQLKNGGCSVSASERNFIYHLRERRVFFPQDVVGNLFTINLFSTLHQSACDIVKYCQGSIVPVGDIALLTRDHFLFLQEVELSVLFGVPATIIQFVEAMLSNKVPIGIKKIVFTGETLRPSQAEWLRSRLGRTLSIVGLYGLSECGFLGLTDAQDCDEYTLFNDDFFFEQDPVHGLLVTSLDPSAKNRLIRYPTGDGVELTFHNKQLKMRIMARKDLLFNFVGNLISVESIAATVAESIPESFIQLVIRSEKGQQELLLVNVAGKNLQTQQLELIAQKLRARPELAEVYQKQRGRLEVHSVAENAFVLSARGKHQFVVDERE | + | + | + | + | + | + | + | − | + | − | + | + | + | + | + | + | + | + | + | + | signal of molecular weight corresponding to N-caprinoyl amino acid [2, 23]: −; signal of molecular weight corresponding to N-caprinoyl amino acid [2, 24]: +; signal of molecular weight corresponding to N-caprinoyl amino acid [2, 25]: +; signal of molecular weight corresponding to N-caprinoyl amino acid [2, 26]: +; signal of molecular weight corresponding to N-caprinoyl amino acid [2, 27]: +; signal of molecular weight corresponding to N-caprinoyl amino acid [2, 28]: +; signal of molecular weight corresponding to N-caprinoyl amino acid [2, 29]: −; signal of molecular weight corresponding to N-caprinoyl amino acid [2, 30]: +; signal of molecular weight corresponding to N-caprinoyl amino acid [2, 31]: +; signal of molecular weight corresponding to N-caprinoyl amino acid [2, 32]: +; signal of molecular weight corresponding to N-caprinoyl amino acid [2, 33]: +; signal of molecular weight corresponding to N-caprinoyl amino acid [2, 34]: +; signal of molecular weight corresponding to N-caprinoyl amino acid [2, 35]: +
2 | PsIAAL: indoleacetate-lysine synthetase from Pseudomonas savastanoi (PaaK protein), His-tagged (protein, listed as Pseudomonas savastanoi, His-tag, indoleacetate-lysine synthetase from Pseudomonas savastanoi (PaaK protein), His-tagged) MTAYDMEKEWSRISITAAKIHQNNDFEGFTYQDFRTHVPIMDKDGFAAQTERCLERNERNCLIGFTSGTSGNIKRCYYYYDCEVDEDSSLSNVFRSNGFILPGDRCANLFTINLFSALNNTITMMAGNCGAHVVSVGDITLVTKSHFEALNSIKLNVLLGVPSTILQFINAMQHNGVHINIEKVVFTGESLKTFQKKIIRQAFGEQVSIVGVYGSSEGGILGFTNSPCHTEYEFLSDKYFIEKEGDSILITSLTRENFTPLLRYRLGDTATLSMKGDKLYLTDIQREDMSFNFMGNLIGLGIIQQTIKQTLGRSLEIQVHLSVTEERKELVTVFVQASEVDEDERVRIETAIADIPDIKEAYQKNQGTVSVLRKDARDYAVSERGKMLYIIDRRN | + | + | + | + | + | + | + | + | + | + | + | + | + | + | + | + | + | + | + | + | signal of molecular weight corresponding to N-caprinoyl amino acid [2, 23]: +; signal of molecular weight corresponding to N-caprinoyl amino acid [2, 24]: +; signal of molecular weight corresponding to N-caprinoyl amino acid [2, 25]: +; signal of molecular weight corresponding to N-caprinoyl amino acid [2, 26]: +; signal of molecular weight corresponding to N-caprinoyl amino acid [2, 27]: +; signal of molecular weight corresponding to N-caprinoyl amino acid [2, 28]: +; signal of molecular weight corresponding to N-caprinoyl amino acid [2, 29]: +; signal of molecular weight corresponding to N-caprinoyl amino acid [2, 30]: +; signal of molecular weight corresponding to N-caprinoyl amino acid [2, 31]: +; signal of molecular weight corresponding to N-caprinoyl amino acid [2, 32]: +; signal of molecular weight corresponding to N-caprinoyl amino acid [2, 33]: +; signal of molecular weight corresponding to N-caprinoyl amino acid [2, 34]: +; signal of molecular weight corresponding to N-caprinoyl amino acid [2, 35]: +
